For the series, the target named is His-RelA (p65) (UniProt Q04206 1-551). Nature of the series: EMSA; EMSA: 10 mM Tris-HCl pH 7.9, 50 mM NaCl, 1 mM MgCl2, 1 mM EDTA, 5 mM DTT, 5% glycerol, 0.5 µg poly dI.dC, 2-10 µg acetylated BSA, 10 min, room temperature; gel. As to conditions: protein: recombinant, tags: His, chain copies: 2.
Sequence of His-RelA (p65) (Q04206 whole entry): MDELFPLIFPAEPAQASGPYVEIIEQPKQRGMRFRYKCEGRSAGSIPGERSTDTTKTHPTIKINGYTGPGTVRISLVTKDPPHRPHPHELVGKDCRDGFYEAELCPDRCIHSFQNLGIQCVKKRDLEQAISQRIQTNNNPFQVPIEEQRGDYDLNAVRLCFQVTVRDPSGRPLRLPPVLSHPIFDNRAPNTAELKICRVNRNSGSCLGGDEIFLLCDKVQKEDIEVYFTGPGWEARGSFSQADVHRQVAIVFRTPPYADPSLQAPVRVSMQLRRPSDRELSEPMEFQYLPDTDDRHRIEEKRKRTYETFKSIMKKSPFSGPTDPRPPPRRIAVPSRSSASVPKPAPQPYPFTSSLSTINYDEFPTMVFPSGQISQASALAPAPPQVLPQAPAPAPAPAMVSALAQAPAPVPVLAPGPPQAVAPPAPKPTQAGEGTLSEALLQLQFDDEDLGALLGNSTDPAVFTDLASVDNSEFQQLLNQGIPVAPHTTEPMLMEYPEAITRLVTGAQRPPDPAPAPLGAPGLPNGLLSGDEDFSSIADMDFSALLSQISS

B1: IL6-M (dsDNA)
DNA 1: TTGCTATTAAATGTGTTCGTTTGTACAGAGTCTCAAAA
DNA 2: TTTTGAGACTCTGTACAAACGAACACATTTAATAGCAA
On to B1, for which, for the setting “blunt”, the binding result was “no binding”.

B2: C1-M (dsDNA)
DNA 1: GAAACACCCTGTACTCCGAAAAGGTCCCTGGCCCGGAGCTCTG
DNA 2: CAGAGCTCGGGGCCAGGGACCTTTTCGGAGTACAGGGTGTTTC
B2: for the setting “blunt as printed, one internal mismatch outside the motif (printed)”, the binding result is listed as “no binding”.

B3: C2-M (dsDNA)
DNA 1: GGACCCTGAGCTCAGAAAAGGTCCCTGGTCCACGGGCT
DNA 2: AGCCCGTGGACCAGGGACCTTTTCTGAGCTCAGGGTCC
Take B3: the binding result (blunt) is “no binding”.

For the origin of these results see PMC8164026, “Intrapulmonary administration of purified NEIL2 abrogates NF-κB–mediated inflammation”.
